{
  "source": "the DeepSol protein solubility set",
  "data": [
    {"test": "soluble on expression in E. coli; label from the status in PepcDB or PDB records", "values": [
      {"sequence": "MGSDKIHHHHHHMKIVHVCETLKGGIESYLAEIIPYQVGLYGAENIHIIVPRDGDEGRSEFHEAVVWEFRRQGRSLSTMLNLCLAILKIVRTQAPDVIHLHSSFAGAIGRVVLMALRKETKVIYCPHGWSYLRQGAEHTNWLWKKIETMLALACNRIVCISEHEYNAALDAGLPKQKLELIVSGISDLVPDAPRNQAVSSEKRAIRLLFVGRLDYQKGVDLLFNALRLAARKDIELTVVGEAVVNSGWWAQVRGSCPENVQIIGWQERDALQIFYDLADALVVPSRWEGFGLVAVEALRAGTPVICNVAGALPDIVEHGISGYHLNFENEEKAVAFFSDLKLENLTLLRRAARERYTSVFKSQAMNEKMLQMYQAVMPHAETVGAAGFME", "soluble on expression in E. coli": "not soluble"},
      {"sequence": "MDFPCLWLGLLLPLVAALDFNYHRQEGMEAFLKTVAQNYSSVTHLHSIGKSVKGRNLWVLVVGRFPKEHRIGIPEFKYVANMHGDETVGRELLLHLIDYLVTSDGKDPEITNLINSTRIHIMPSMNPDGFEAVKKPDCYYSIGRENYNQYDLNRNFPDAFEYNNVSRQPETVAVMKWLKTETFVLSANLHGGALVASYPFDNGVQATGALYSRSLTPDDDVFQYLAHTYASRNPNMKKGDECKNKMNFPNGVTNGYSWYPLQGGMQDYNYIWAQCFEITLELSCCKYPREEKLPSFWNNNKASLIEYIKQVHLGVKGQVFDQNGNPLPNVIVEVQDRKHICPYRTNKYGEYYLLLLPGSYIINVTVPGHDPHITKVIIPEKSQNFSALKKDILLPFQGQLDSIPVSNPSCPMIPLYRNLPDHSAATKPSLFLFLVSLLHIFFK", "soluble on expression in E. coli": "soluble"},
      {"sequence": "MSLDTGVTSVMFVERSLNEIRFWSRIMKEHSFFLRLGFRCEDTQLIEEANQFYRLFEHIEQIAHSYTNETDPEQIKRFNAEVQQAATNIWGFKRKILGLILTCKLPGQNNFPLLVDHTSREADYFRKRLIQLNEGKLDALPDAIIKENVFFLRIMADHAKFIGHLLDPSERKLVDTARNFSNDFDELMYQAIDLESMKPQSQTAPLLDQFLDQNRVSVASLRDFKKTARDLIEQCKIKSIIHPLLADHVFREADRFLEIIDMYDVHLTNIQSQPREGHHHHHH", "soluble on expression in E. coli": "soluble"},
      {"sequence": "MKIRIFVPQNKFMNREMLYNDLSGFLAMHFPCKVQKISINAGFTCPNRDGSVGYGGCTYCNNQTFNPAYCHTGKSVAQQLEEGKRFFVRKYPEMKYLAYFQAYTNTYGELEELKRKYEEALMVEDVVGLVIGTRPDCMPISLLDYLEDLGKRTFVLVEYGIESTDDETLRRINRGHTFAVSAEAVRKTAERGILVGGHIILGLPGEEREMLIRQAGVLSQLPLTTLKLHQLQLIKGTRMASEYVKEPEAFHLYTADEYVDLVIDYIEHLRPDIVLERFVSQSPKELLIAPDWGLKNYEFTDKVKKRMREKDAWQGKYYKY", "soluble on expression in E. coli": "not soluble"},
      {"sequence": "MTTVMKFGGTSVGSGERIRHVAKIVTKRKKEDDDVVVVVSAMSEVTNALVEISQQALDVRDIAKVGDFIKFIREKHYKAIEEAIKSEEIKEEVKKIIDSRIEELEKVLIGVAYLGELTPKSRDYILSFGERLSSPILSGAIRDLGEKSIALEGGEAGIITDNNFGSARVKRLEVKERLLPLLKEGIIPVVTGFIGTTEEGYITTLGRGGSDYSAALIGYGLDADIIEIWTDVSGVYTTDPRLVPTARRIPKLSYIEAMELAYFGAKVLHPRTIEPAMEKGIPILVKNTFEPESEGTLITNDMEMSDSIVKAISTIKNVALINIFGAGMVGVSGTAARIFKALGEEEVNVILISQGSSETNISLVVSEEDVDKALKALKREFGDFGKKSFLNNNLIRDVSVDKDVCVISVVGAGMRGAKGIAGKIFTAVSESGANIKMIAQGSSEVNISFVIDEKDLLNCVRKLHEKFIEKTNS", "soluble on expression in E. coli": "soluble"},
      {"sequence": "MTTASTSQVRQNYDQDSEAAINRQINLELYASYVYLSMSYYFDRDDVALKNFAKYFLHQSHEERCHAEKLMKLQNQRGGRIFLQDIQKPDRDDWESGLNAMEAALQLEKNVNQSLLELHKLATDKNDPHLSDFIETHYLNCQVCAIKCLGDHVTNLRKMGAPESGLAEYLFDKHTLGDSDNES", "soluble on expression in E. coli": "soluble"},
      {"sequence": "MNVLKLTNGREISYLNEVEIRMGIDELNGEERYKKELENMETSDITVHKYEGGFKIWECTVDLCDYIEENQTLFAGKSVLELGCGAALPSILTAVHGAKEVFAQDFNASVIEFFTLPNFEENPHSAVVQGEAMGWEEVPNRLSGRKFDFILSSETIYNEDDYQALHDAVAATIKDDGVAWFAAKFFYFGVGGSVPAFCEFINQRGILQASEAKVIAASVPRRIVEIRKK", "soluble on expression in E. coli": "not soluble"},
      {"sequence": "DKKQLVLVLCASGATSSMLANAITKGAKQEGVNVESIAMAYGQHKDVIADYDLIILAPQMASMYEELKADCASKGTKSATTTGKEYVKLTRDPVGALKFALDIINE", "soluble on expression in E. coli": "not soluble"},
      {"sequence": "MSVEKTCRYLSLFLVASLTGCGFHLRGSETSDGAGQVLFLEKAGSTRVGSRLPDAIRLTGAQLTRNMVDAKGVIRILKETDERRTMSLNLGGRGNLFDLYTRVRYEVTTPQGEIIIPPQEVEVKREYFNNQLSPIGQGEEESLLRSEMERELAETLVRRVLIEMSRNPGGKSLEHHHHHH", "soluble on expression in E. coli": "soluble"},
      {"sequence": "MDRRQRFEKYDWLISKTQSILKNYECPESCNASCCRHHIIDFRRKEYEKILKNVDKESANILKSNAVKSELEGCYKAIVGQCPLLTNSKCRIYNNRPEACRNFPFVIFPDPEAGFGLTLLLCPISVNIIQDYAQWYKSVNLTMYNQLTAVYEQYKNIGENNDFCIQMKEQNLDSFIEFLEKKLEHHHHHH", "soluble on expression in E. coli": "not soluble"},
      {"sequence": "MGSDKIHHHHHHMKHSRTAAAKRKTGVFARLADLYTRMEQEYSDKARAAGLTCAGCPDNCCTSYFQHHTHVEWLYLWRGMNRLPEARRAAYLARAKDVVEQSRDLLARGIRPRLMCPVNDDGLCGIYEHRLMICRMHGTRNVLALPDGGLRSFSGCFRFVECTAGQQAEAVPTVDRTPYYRELAALEMEHVGPRLKKLPRVDLTLAEMLFYGPPKL", "soluble on expression in E. coli": "not soluble"},
      {"sequence": "MGSDKIHHHHHHMNFKRLIIYEAFARAYPGEKGKKFDSLIKDLERLKGMGINTVWLMPIHPTGIEGRKGTLGSPYAIRDYYEIDPLIGTKDDFKRFVKRAHELNMYVLMDMVLNHAAADNVLVREHPEWFLRDEKGNPTRKVPDWTDIVDFDYSNGELRKYMINMMKYWVEEFDVDGFRCDVAGLVPLDFWLQARKELDPVKRLIWLSETHDPYMYQAFDITYDYDGYYKFRDFIEGRGSLREYVDFLRMQDHMYPRGYIKMRFLENHDQPRIAKFIEEDSLVHWIAFLFTFKGVPLVHNGQEYGLKEDVDIFNEYTLPFPMEENRISILHRKLAHYRYGTSVFSEGEMLFVKNDQPEKVISYLWRYENRYILCMLNPLLENTKVTLDFSGIWESACIHSKNVFNDEIVRVPVKNSRATVEIGKEPLILSFVLY", "soluble on expression in E. coli": "not soluble"},
      {"sequence": "MPKGGPSGLSPVYAGIREDLDTLLRAYLQFKSVRFYDYKMMFERRGMVDIFNGRSESSEIIEFNEHLLVQCLSYMEEEACPGMPRSLKERLFGLYSLYTFFFIQQESHVVQIRMNPDCARNFRKFAQFLLVEKIYDAYVHDPCYAKSNQTDEKSHGVPVLANLNDPLCRVKALTEQFDMLGVIHREYSKLKDKFGITGNPLNDPTEILSRVIEKNLKAIEDSAIEKVFDVDQDEQSSVDALSSDGDDEETEKDPDIAENDDNVEETIEPSLPSRKRKRKRRQSKTVPISDPEVLDDLFAREILRDNQPTTSDDSAQRMNVDSKIVPGRKKSRKMSAKKAKINLPRIVKSEQIPPLRGIMKNEDLNNSESCIHENVDIVLTQSDSLKNEIKSEIVALNSSTKTSFKSSRRVSFREKENGELDNTIHEIPRRCHSSDESDEENSDEDPVAESSHRPHLTIQLKPIHEKYETSISMNLIYMKNKEKLISADDFNIFKPVEGAEETFETPFDSLIPEDIDSDDEI", "soluble on expression in E. coli": "not soluble"},
      {"sequence": "MGHHHHHHSHMFWRNPLPNIDHELQELLIDRGEDVPSEEEEEEENGFEDRKDDSDDDGGGWITPSNIKQIQQELEQCDVPEDVRVGCLTTDFAMQNVLLQMGLHVLAVNGMLIREARSYILRCHGCFKTTSDMSRVFCSHCGNKTLKKVSVTVSDDGTLHMHFSRNPKVLNPRGLRYSLPTPKGGKYAINPHLTEDQRFPQLRLSQKARQKTNVFAPDYIAGVSPFVENDISSRSATLQVRDSTLGAGRRRLNPNASRKKFVKKR", "soluble on expression in E. coli": "not soluble"},
      {"sequence": "MAEREVRSTAYQLNAARFPLYRDLAGFDFASSEINEALVRQLHRCEFMDQANNVVLVGGPGTGKTHITTALGVRAVEHQCKRVRFFSTVEFVNVLEQEGPRAGQIANRLAHSDLVILNELGYLPFSASGGALLFHLLSTLYGRAPASSSPLKLISASASGLP", "soluble on expression in E. coli": "not soluble"},
      {"sequence": "MNGNQARNDIDEWLKTAACIKHPAGCVDQDGHSAFSDREGNLFQLAVPDAFSSLHLYGTLLELQPAVDGRVLASALAINAQKNVLRGSVIALNTENQELFVHHTVTLESLDRVALWQTLDNFVALTRELRSALRSQPVPAAKIESTHFNHLRRGF", "soluble on expression in E. coli": "not soluble"},
      {"sequence": "MMAKKPPKPAPRRIFQERLKITALPLYFEGFLLIKRSGYREYEHYWTELRGTTLFFYTDKKSIIYVDKLDIVDLTCLTEQNSTEKNCAKFTLVLPKEEVQLKTENTESGEEWRGFILTVTELSVPQNVSLLPGQVIKLHEVLEREKKRRIETEQSTSVEKEKEPTEDYVDVLNPMPACFYTVSRKEATEMLQKNPSLGNMILRPGSDSRNYSITIRQEIDIPRIKHYKVMSVGQNYTIELEKPVTLPNLFSVIDYFVKETRGNLRPFICSTDENTGQEPSMEGRSEKLKKNPHIA", "soluble on expression in E. coli": "soluble"},
      {"sequence": "MDPSQQTPQETVVAPVAPLLEDQLELDMKHCFENLIVIDVGANLTNKKYSRDLDSVVQRARDAGVQKLMVHGTSVKSSKEALRLSRIYPDIIYSTAGIHPHDSKSIVEEPATWFDLEHIAQAQECVAIGPCGLDYQRDFSEPDAQKQIFAKQLHLAIRLNKPLLIHERSAQLDLLEILDKFENLPPVIIRGFMGTAEEALKYLDRRFYISLTGYLCKDKSDTGVRRLLEDGTLPLDRLLVETDAPFMYPNTRASKLPQHVKTGITERSLLYLHRYCTFQRNEPCSLPAIVEMIAAFMKKSPDEVALATAFNALKLFGLSLEHHHHHH", "soluble on expression in E. coli": "soluble"},
      {"sequence": "MIRFEHVSKAYLGGRQALQGVTFHMRPGEMAFLTGHSGAGKSTLLKLICGIERPSAGKIFFSGHDITRLKNREVPFLRRQIGMIFQDHHLLMDRTVYDNVAIPLIIAGASGDDIRRRVSAALDKVGLLDKARNFPIQLSGGEQQRVGIARAVVNKPAVLLADEPTGNLDDALSEGILRLFEEFNRVGVTVLMATHDIGLISRRSYRQLVLSDGHLHGGLANE", "soluble on expression in E. coli": "not soluble"},
      {"sequence": "MAMMAKHQAVKKIFDQIATKYDLIDTIISLGLDQHWRRVLVSSLGLREGMRCLDCGAGSGKVTELIYFRCGGCDVTALDITDSMFNPELKKYVKFVVSPAESLPFPDASFDRVSSAFLTRNLADIDRYFAEVYRVLRPGGVFVNMDIYNPTRPVISEFFSLYFYRFVPFFGNRATGSKNYTYLANTVKYFHRPSVISQKLADRGFSVEATDLFFGAVYLHRSVKPEGRGLEHHHHHH", "soluble on expression in E. coli": "not soluble"},
      {"sequence": "EDHEGRHMMAVLPANNKISLSRLNDEFNATFHLVKERMVYRLFTDCEHGAIPPIGSPYHMSTVCDERLANLEHVYLEAGDHETLIKLDRKAFKDLMNDCKYLRFSSEVLH", "soluble on expression in E. coli": "not soluble"},
      {"sequence": "MGHHHHHHMEARNMTPFTYFSLPMQKLFLRNQAAVRNKPYAKYFRSEMRVPLSAVRKIQQGPMALEDTLTPSIEDINRLLEPDFVSEESGYALLPGPMAYVQSRKFFPGCTAQMFKWWFIWHPAESERYTLWFPYAHVSNPCVHHQRLRDESLSFEERLYGNTFCASEYVGDRLMHLHIDFQQPASLGLNTDLYREAKIDGSVSALMSLADHPEVPVSLMVHLFKEVPDGMYLTSRYWVGAHPSMARFPGAEKAASLLKENGFGEAELETLAYEFAVHDMCEFNHLASFLPDLYREFGTPAA", "soluble on expression in E. coli": "soluble"}
    ]}
  ]
}
